Source: the supplement of paper PMC12042874
± gives the uncertainty stated by the source.

Test: amyloid nucleation score (Sup35N fusion, yeast selection) (log enrichment); library NNK2; higher = more nucleation; inactive = no reads after selection
Method in brief: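 Psi-negative yeast expressed Sup35N fused to peptides of 20 random codons. They were induced 24 hours with 100 μM copper sulfate, grown 7 days at 30°C without adenine and uracil, and their plasmid inserts from input and output were Illumina-sequenced. The nucleation score is the DiMSum log enrichment of output over input reads, centred on the mode score of non-aggregating sequences. Sequences with under 100 input reads were excluded.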

Substance | amyloid nucleation score
RMLLKLTHFALSVKGMQSRY | 0.417 ± 0.38
ARCIQVMVIGISWRVGCMPT | 0.521 ± 0.36
MLVVLWQSARRSVTIIKVRT | 0.546 ± 0.5
NLRSYIRGSLFGFCSRLWEN | 3.09 ± 0.08
WSNPTKLFHELAVQLNYTMP | 0.903 ± 0.74
SIINLTVPAHPHLNNPLRRQ | 4.76 ± 0.075
LVSVLGSTFLGSAWDTEGWY | -0.579 ± 0.5
VCFVM | -0.016 ± 0.79
CCHHR | 1.08 ± 0.28
MCSSPRRNDKLNNGRFYSCS | -1.11 ± 0.54
ARCNCL | 0.559 ± 0.49
DNSIRTLEILKSGNIVRGPR | inactive
LSQQSSMLKDRITDICGDLL | 1.4 ± 0.33
LEVKARFP | -0.471 ± 0.45
CSVSGNLQISFYGNMPINSF | -0.924 ± 0.78
SAFLRIINACTATFHENSAR | inactive
SLMFKRRK | 0.317 ± 0.28
LSHMFVTALIVIEKFCLTAL | 0.111 ± 0.39
GVRDVIQL | 2.05 ± 0.26
YTAQRLNSTYI | -0.506 ± 1
YYFFCVNGGHDMGAILNMLW | 6.94 ± 0.086
ERGSYLRESRYIVFFNLLIL | inactive
DFRKNANRLLRIYGVMRECA | -0.016 ± 0.19
EPNIGSVP | -0.171 ± 0.55
WPSLVLGYDMLGVI | -0.025 ± 1.1

Substance | amyloid nucleation score
DVFVDMGMLTPKRCRARRGV | 0.883 ± 0.34
GTRLNYFNWIICGGETGCAA | -0.171 ± 1
TSRML | 0.67 ± 0.39
MISCSLSFSLAPQDELRSCK | inactive
RQARSCIVGDGSWRGCLIKV | 1.11 ± 0.26
FLYQEPSSCVTTAKISGLMA | inactive
WHFSLTMFRSERVNVLTASD | 1.04 ± 0.27
NCRLKLPSP | 3.69 ± 0.05
RIGVSSFVEEHSRIGLGRAP | 5.57 ± 0.066
KCVVRAVA | 2.23 ± 0.24
SSFVNRWCEHYNGVVVSWLL | 0.236 ± 0.17
QDNFQFFAVSMRGCDCTGVS | 6.96 ± 0.048
AFYCQRDRVE | 3.18 ± 0.099
YSRGIWCNLDGHERCVSLST | -0.266 ± 1.1
WWNTGCVGLMCICTLFSGSR | 8.985 ± 0.081
DSWLFGDINRCFWLVKCYHR | 2.69 ± 0.075
GACVAKATF | 0.616 ± 0.19
RNLGIHKSLFNSAYARAWAV | -0.771 ± 0.49
SGQRQLCVWCVCVAGGRIKL | 6.54 ± 0.076
VTKHLGEARKLVLDQRLHWG | 5.601 ± 0.047
KFGLPREYNSSVPVGPASCL | 0.272 ± 0.41
CHISLTKWCRFRVV | -0.014 ± 0.76
FKSTNLMAWIFGMYIVFLGF | -0.08 ± 1
VIIFFFVFRCMPDLIQVYCV | -1.72 ± 1
GVRYSFSTTRKFTELSFNIC | 3 ± 0.16

Substance | amyloid nucleation score
HQVLYTIAISFTIELAVIIA | inactive
HQRGMNLISFVWHSENVRIW | 1.07 ± 0.61
HLVVSMVRTLVCHFCRFDVS | 1.28 ± 0.41
FNCEGLVNS | -1.25 ± 0.64
VEALSISMQLYYRSLVAG | -0.066 ± 1
YYQEHQTRLWIWSQHGLNAI | 0.864 ± 0.19
PLYSPRVCFFGYAPKVCITH | -0.724 ± 0.4
LLINLVPFWLILRHDYLIKF | 0.959 ± 0.74
LESMFNVL | -0.44 ± 0.56
KWMFEVTVYGRWYVTHQAGL | 4.827 ± 0.041
DQLWRIRYWLLTDVGRNRIF | 0.343 ± 0.38
NQNCLHTTCVCSRIVSDAAV | 6.483 ± 0.038
TNQGFLWVSPLILTRCGDRQ | 6.68 ± 0.079
WLNVDYSYSALRLHNCNGLM | 1.64 ± 0.085
ELTTTTTYVRKVFCLYFS | 8.422 ± 0.047
SVDRNNTYLYRLKYAFWAMG | 6.644 ± 0.043
CNYYFVKYQGINGCGTPVKF | 3.01 ± 0.12
IYLHFGNLLNYFETRRTVFR | 6.19 ± 0.087
TYVHNKVCKNACNFSTLGPC | 0.143 ± 0.8
PRDNSQVLILLNW | 5.424 ± 0.041
YVYEIDYSRFQFCARWVGWA | 0.597 ± 0.48
TAAGLFISNNHMNYFDAIAY | -1.09 ± 0.78
AEQRWTVRIVLSYYVSKINI | 0.316 ± 0.65
GIMSSELLYYYVRISYESC | -1.21 ± 0.45
CMARPMSVLECHSCWEDALG | 0.221 ± 0.31

Substance | amyloid nucleation score
DTMKFFSSLSMNGENVGLGY | inactive
IVFVLLSYYLL | 3.4 ± 0.037
NSLYRGRRHRAYDINVSFVK | -0.392 ± 0.48
YKTIIRSVMSELSGSLRQSE | 1.26 ± 0.11
YLCYNALNDFD | -0.445 ± 0.41
AHHCVGYCSHIFQDPRGRVM | 0.22 ± 0.44
WFFKTAMWVITT | 0.081 ± 1.1
SKRDGVSSMIM | 4.25 ± 0.069
RHTFLVSAGYKERMVGMTSG | -1.12 ± 0.63
RYYGRPFRVLYRWSVREYYT | 4.395 ± 0.04
FKNAWFLATFNPTT | -0.104 ± 0.23
DECCMWMVLPEGSPAQRPLG | 1.04 ± 0.34
VFWGM | -1.35 ± 0.49
SWTHRAGYIKRMSE | -0.212 ± 0.55
KSFGCIRKCEDCYIW | 0.74 ± 0.51
CNYRVA | 0.276 ± 0.39
NSIAYPACLNKWGWIKFSSY | -1.41 ± 0.29
LCQIANNSVGLRKDQEGLR | 0.375 ± 0.41
LPLILV | 0.356 ± 0.8
QNECKIMTLIFCLLRSKQYY | 0.005 ± 0.65
IIVNMKLVDTS | 0.138 ± 1.1
FMTVSDTMFHRIVASPQVPA | 0.87 ± 0.32
PRLPTQTITK | 1.53 ± 0.16
ITCLWRAWNAVLRRGHYKTS | 0.615 ± 0.51
FGINSLYINKWSDRLRQCTR | -0.142 ± 0.79

Substance | amyloid nucleation score
LREGCVTLLS | 0.27 ± 0.36
LLVRTYKLMMFHSLGIG | -0.583 ± 1
VDCGFRRLFVFTNSIYCVCR | 5.321 ± 0.053
NSLHSDSVLIKERDADKSTR | 1.73 ± 0.14
NSRQYSVMIVQLIPCCQLIP | 0.033 ± 0.6
SAFSVSYTKSAFSARTVDIK | -0.948 ± 0.33
TKRAIDWA | 0.669 ± 0.8
TFDVTRI | -0.311 ± 0.33
MDGDFSINFMDPSTTCLLYE | inactive
VSFKTSGKLCTAWFVWGLF | -0.108 ± 0.34
HRVQSGLCSKNSRE | 2.96 ± 0.15
CWGGISSALRQ | 0.698 ± 0.8
YIESIAECQSVRVGSIVDCF | -1.33 ± 0.75
YNIHYMNVLIGALHL | 8.327 ± 0.056
IFVGIIKIVCWNNEGVDDLQ | 4.61 ± 0.063
WWHLKTQKSP | -0.09 ± 0.44
ISVDTRFGLNVCFEGCCAYR | 7.449 ± 0.062
LWPCSCFVRRCYECFEGDAG | 3.2 ± 0.057
SCYRIWIMILVIGFSLNRRL | -0.208 ± 0.2
FNTCGSHRSGRRFL | inactive
GTWMWETFCRLTFVFGIRRG | -0.264 ± 0.54
FIFVVMVMVWFWTGLCLSYN | inactive
QRADQWVSRKLRPSIARL | 1.52 ± 0.34
GVDKGSVYG | inactive
IQVASRRIIM | 0.063 ± 0.21

Substance | amyloid nucleation score
YGDSWLFCYVE | -1.12 ± 0.64
WFRYNCHDFSLTNPWRHHNL | 0.507 ± 0.52
VGHQVDCHTSVRYYILYAFF | 7.839 ± 0.063
SREGLCCNIVYA | -0.45 ± 0.37
LFLQGRNQLDTHWFCPACPM | -0.727 ± 0.55
VARVWEWFCVCWTWDSELVG | 3.69 ± 0.057
MLCRYVVVQGLKVNMGHVFC | 7.567 ± 0.065
SYFSVKHDRR | -0.228 ± 0.35
LECCG | -0.838 ± 0.55
LYVCHKICSSCLKGW | -1.11 ± 0.61
VAVISDWGWQNWMSVVGVGH | inactive
IWLLHQCSLATLGFC | -1.25 ± 0.62
LVNTYYAHVWWLLVGIMMLS | -0.645 ± 1.1
WDLLHYFDLF | 0.232 ± 0.56
HDKLVTRLYWYSKCVVKGLN | -0.375 ± 1.1
RFAMFMVVRWGWDHKYEFLR | 0.353 ± 0.33
EESGGYC | -0.893 ± 0.25
MLFSTATYSSGRRFDFVEIA | 0.422 ± 0.65
WGADSYYMCTKLLGSDCGSN | 0.453 ± 0.66
NIRSYPVNYKHHFT | 0.19 ± 0.27
NRKEQVVPLHVRSPI | 1.13 ± 0.17
ASKSYIITSSCRASLTVSSL | inactive
KSINNC | 0.181 ± 0.26
EDVDICRHFYRGVVNNGYQR | 0.328 ± 0.57
NNSMLLSDTLLGYRRTGLDC | -0.176 ± 0.3

Substance | amyloid nucleation score
NYSRL | -0.099 ± 0.26
NLGDVSYTSSFG | 1.31 ± 0.43
DYLSIFDYHDMMGQNFL | -0.151 ± 0.49
RVNGLKSRVSRVRIGNVS | 0.224 ± 0.23
CCGLGELNLALLRELSWRVG | 1.34 ± 0.25
FVEITRG | -0.196 ± 1.1
TPVYPRRSIVLICSISMLRK | 4.12 ± 0.064
WGWKYMLEELN | -0.177 ± 0.55
YFGFGKSGDYHHSWKRWLPR | -0.511 ± 0.35
FCWFRLLEYFSR | -0.201 ± 0.45
KNKTL | 0.576 ± 0.46
VTLNTVDFPTGICKSSGARW | -0.236 ± 0.42
YIKWQI | 2.94 ± 0.065
NIRQVIKGVSCLHIMWEKWR | -0.304 ± 0.48
YRFYSLRMYKFWWLTLTLCL | -1.12 ± 1.1
WKQEYFG | -0.508 ± 0.63
ILIRLLGSRKQSWNYEIKVL | -0.645 ± 0.37
YCPDLLHYHL | 0.256 ± 0.21
MRCNFADSAYRMISMTV | 0.412 ± 0.55
NSSSYVDFGTICMDSIWMS | 0.041 ± 0.53
SLYVVQYCRSRYLVNCTDRV | 0.129 ± 0.33
NLRMVG | 0.182 ± 1.1
NLYSLPQEDRSLNDEKGG | 0.121 ± 0.49
